Patent US11285284B2, “Methods for treatment of pulmonary lung diseases with improved therapeutic efficacy and improved dose efficiency” (PNEUMA RESPIRATORY, INC., priority 2016, dated 2022)
Several values for one entry are separate records, joined by “and”; a condition that tells them apart may be missing. Equal values may be shown once.

Columns and labels:
[1] = tested on: patients with cystic fibrosis; conditions: cited from earlier work
[2] = Gel electrophoresis of active agent after droplet generation; format: physicochemical
Source text: Gel Electrophoresis: To determine the stability of active agent after droplet generation, the generated stream of droplets including the active agent is collected and the molecular weight of the active agent is verified using gel electrophoresis.

[3] = Gravimetric analysis of delivered dose per actuation; format: physicochemical; conditions: for total delivered dose per actuation: from gravimetric mass and solution concentration; for average mass ejected per dose (actuation), gravimetric: solution filled ampule weighed before and after dosing, average of five doses
Protocol: Gravimetric analysis was performed by weighing the Enbrel solution filled ampule before and after dosing. The average of five doses (actuations) were analyzed with an average of 4.25 mg+/−0.15 mg. The total delivered dose of Enbrel per actuation is therefore […] per actuation.
Gravimetric analysis was performed by weighing the Insulin solution filled ampule before and after dosing. The average of five doses (actuations) were analyzed with an average of 5.01 mg+/−0.53 mg. The total delivered dose of Insulin per actuation is therefore 34.8 mcg per actuation.

[4] = Enbrel stability after aerosol generation, size exclusion chromatography; format: physicochemical; conditions: for Peak Area %, Peak 1 / Peak Area %, Peak 2 / Peak Area %, Peak 4 / Peak Area %, Peak 5: SEC UV 280 nm
Source text: Alternately, to determine the stability of active agent after droplet generation, the generated stream of droplets including the active agent may be collected and […] may be employed to monitor for any changes in large molecule aggregation and protein fragment content. Soluble protein aggregates and protein fragment content may be calculated by comparing respective peak area under the SEC-HPLC curve of dispensed protein solutions with controls (solutions remaining in the device reservoir). Drug solutions for testing include Enbrel, (ENBREL® single-use prefilled syringes in 25 mg (0.51 mL of a 50 mg/mL solution of etanercept), and insulin, (Humalog, 200 units/ml, 3 ml […] is performed with a YarraTM 3 um SEC-2000 LC column 300×7.8 mm, SecurityGuard cartridge kit and SecurityGuard cartridges GFC-2000, 4×3 mm ID. Fifty microliters of Enbrel from the syringe (ENBREL® single-use prefilled syringes in 25 mg/0.51 mL of a 50 mg/mL solution of etanercept) is diluted (4:1) (4 parts, 200 mcl of the mobile phase buffer solution to 1 part, 50 mcl Enbrel from syringe). Fifty microliter of the diluted Enbrel is injected and separation was performed at a flow rate of 1.0 ml/min. The mobile phase buffer system included a PHOS. BUFF. SALINE. […] UV detection is performed at 280 nm. […] An ampule/cartridge is filled with either 0.20 ml of Enbrel® (50 mg/ml) diluted 4:1 (10 mg/ml)(4 parts (200 mcl) of PBS and 0.025% NaN3 and 1 part (50 mcl of Enbrel solution from the syringe). After 20 actuations and aerosolization, about 150 mcl of the aerosolized Enbrel solution is recovered and collected in the polypropylene tube located below the ejector mechanism. The control consists of the diluted Enbrel solution, 50 mcl of which is injected into the SEC column for analysis.

[5] = Insulin stability after aerosol generation, size exclusion chromatography; format: physicochemical
Source text: Alternately, to determine the stability of active agent after droplet generation, the generated stream of droplets including the active agent may be collected and SEC-HPLIC may be employed to monitor for any changes in large molecule aggregation and protein fragment content. Soluble protein aggregates and protein fragment content may be calculated by comparing respective peak area under the SEC-HPLC curve of dispensed protein solutions with controls (solutions remaining in the device reservoir).
Drug solutions for testing include Enbrel, (ENBREL® single-use prefilled syringes in 25 mg (0.51 mL of a 50 mg/mL solution of etanercept), and insulin, (Humalog, 200 units/ml, 3 ml kwikpens)
To calculate and compare effects of droplet generation through an ejector mechanism of the disclosure, the total area under the curve of the UV signal at 280 nm versus elution time for controls is compared with the aerosolized samples, which is set to 100%.
Aerosol collection and SEC is performed in a similar fashion as for the Enbrel analysis and aerosol collection.
Fifty microliters of the collected aerosol spray is injected onto the SEC column for analysis, while 50 mcl of the Kwikpen insulin solution is injected onto the SEC column for control samples.

[6] = average of aerosolized S1 and S2
[7] = control, Enbrel diluted 4:1 (10 mg/ml), not aerosolized

Molecule: NC[C@H]1O[C@H](O[C@H]2[C@H](O)[C@@H](O[C@H]3O[C@H](CO)[C@@H](O)[C@H](N)[C@H]3O)[C@H](N)C[C@@H]2N)[C@H](N)C[C@@H]1O [tobramycin]
- effect on pulmonary function and kidney side effects ([1]; administration by inhalation): significantly improves pulmonary function without severe side effects to kidney functions
- toxicity of serum levels ([1]; intravenous administration): toxic to the kidneys

Molecule: Enbrel
- change in electrophoretic mobility (molecular weight) of post-aerosol active agent versus control [2]: negligible change
- total delivered dose per actuation [3]: 42.5 µg
- average mass ejected per dose (actuation), gravimetric [3]: 4.25 mg
- Peak Area %, Peak 1 ([4]; aerosolized with test device, 20 actuations, ret time about 5.3 min): 2.796% and 3.476%
- Peak Area %, Peak 2 ([4]; aerosolized with test device, 20 actuations, ret time about 5.8 min): 90.789% and 92.112%
- Peak Area %, Peak 4 ([4]; aerosolized with test device, 20 actuations, ret time about 13 min): 0.357% and 0.352%
- Peak Area %, Peak 5 ([4]; aerosolized with test device, 20 actuations, ret time about 25 min): 5.130% and 3.428% and 5.123%
- Peak Area %, Peak 4, Avg. [4, 6]: 0.3545
- Peak Area %, Peak 5, Avg. [4, 6]: 4.2755
- Peak Area %, Peak 4 [4, 7]: 0%
- Peak Area %, Peak 5 [4, 7]: 0%
- Peak Area %, Peak 1 ([4]; control, Enbrel diluted 4:1 (10 mg/ml), not aerosolized, ret time 4.3-5.3 min): 2.428% and 3.041%
- Peak Area %, Peak 2 ([4]; control, Enbrel diluted 4:1 (10 mg/ml), not aerosolized, ret time 4.8-5.8 min): 96.676% and 95.909%
- fraction of the dose forming molecular fragments ([4]; fragments with elution times of 13 and 25 minutes): 4.6%
- fraction structurally unchanged after delivering an aerosol dose ([4]; test device, SEC): 95.4%

Molecule: Insulin: insulin, Humalog, 200 units/ml, 3 ml kwikpens
- Peak Area %, Peak 3, Avg. [5, 6]: 2.4905
- Peak Area %, Peak 3 ([5]; control, Kwikpen insulin solution 200 U/ml, not aerosolized): 0%
- fraction of the ejected dose forming a fragment ([5]; fragment eluting at ~25 minutes): 2.5%
- fraction of the ejected dose structurally unchanged ([5]; test device, SEC): 97.5%
- total delivered dose per actuation [3]: 34.8 µg
- average mass ejected per dose (actuation), gravimetric [3]: 5.01 mg

Molecule: adalimumab
- change in electrophoretic mobility (molecular weight) of post-aerosol active agent versus control [2]: negligible change

Molecule: bevacizumab: antibody (Avastin)
- change in electrophoretic mobility (molecular weight) of post-aerosol active agent versus control [2]: negligible change
